Experimental data reported in article PMC6704068.

Target: Saccharomyces cerevisiae alcohol dehydrogenase (Saccharomyces cerevisiae) (UniProt P00330)
Test: SEC + native MS

Work on “Saccharomyces cerevisiae alcohol dehydrogenase (from UniProt P00330 1-348) (enzyme)” yielded a stoichiometry N of 4.
